Holding throughout (test): EMSA; 25x unlabeled probe as competitor; 1 ug protein, 20 uL reaction, room temperature 30 min; 6% native PAGE in 0.5x TBE; binding buffer, salt and pH not given
Settings in all cases: protein: recombinant; tags: N-terminal GST (pGEX-6P-1); label: biotin; blunt
A general note: Mobility shift assays separate free from complexed probe on a gel.

One data set addresses T1, GST-SMXL7 (Arabidopsis thaliana, UniProt O80875 1-1002).
T1 sequence: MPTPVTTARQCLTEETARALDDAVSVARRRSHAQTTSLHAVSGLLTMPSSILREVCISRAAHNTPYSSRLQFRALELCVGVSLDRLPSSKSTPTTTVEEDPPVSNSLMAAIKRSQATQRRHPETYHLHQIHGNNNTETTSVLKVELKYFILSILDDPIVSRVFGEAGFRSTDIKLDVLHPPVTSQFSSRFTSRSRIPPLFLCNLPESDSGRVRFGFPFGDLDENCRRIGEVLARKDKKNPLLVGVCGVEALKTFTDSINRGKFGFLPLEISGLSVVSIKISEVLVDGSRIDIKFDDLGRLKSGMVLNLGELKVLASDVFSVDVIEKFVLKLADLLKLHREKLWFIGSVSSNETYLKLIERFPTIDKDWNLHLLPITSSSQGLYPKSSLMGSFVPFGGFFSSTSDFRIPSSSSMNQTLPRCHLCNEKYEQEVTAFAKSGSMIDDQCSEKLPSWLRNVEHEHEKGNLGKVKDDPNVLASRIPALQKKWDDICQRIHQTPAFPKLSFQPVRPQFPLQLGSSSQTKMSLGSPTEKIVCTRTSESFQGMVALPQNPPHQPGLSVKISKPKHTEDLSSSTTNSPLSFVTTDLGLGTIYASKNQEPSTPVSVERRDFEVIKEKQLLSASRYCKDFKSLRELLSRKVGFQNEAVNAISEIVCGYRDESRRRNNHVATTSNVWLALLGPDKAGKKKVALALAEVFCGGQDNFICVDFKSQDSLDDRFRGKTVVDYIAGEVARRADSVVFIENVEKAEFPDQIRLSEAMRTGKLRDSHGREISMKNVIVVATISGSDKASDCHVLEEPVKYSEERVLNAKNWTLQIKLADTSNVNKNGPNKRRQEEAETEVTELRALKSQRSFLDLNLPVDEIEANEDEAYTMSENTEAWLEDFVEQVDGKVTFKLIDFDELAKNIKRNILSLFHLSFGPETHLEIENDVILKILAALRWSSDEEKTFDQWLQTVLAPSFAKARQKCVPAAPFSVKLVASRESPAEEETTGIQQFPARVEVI

Another data set deals with T2, GST-SMXL6 (Arabidopsis thaliana, UniProt Q9LML2 1-979).
T2 sequence: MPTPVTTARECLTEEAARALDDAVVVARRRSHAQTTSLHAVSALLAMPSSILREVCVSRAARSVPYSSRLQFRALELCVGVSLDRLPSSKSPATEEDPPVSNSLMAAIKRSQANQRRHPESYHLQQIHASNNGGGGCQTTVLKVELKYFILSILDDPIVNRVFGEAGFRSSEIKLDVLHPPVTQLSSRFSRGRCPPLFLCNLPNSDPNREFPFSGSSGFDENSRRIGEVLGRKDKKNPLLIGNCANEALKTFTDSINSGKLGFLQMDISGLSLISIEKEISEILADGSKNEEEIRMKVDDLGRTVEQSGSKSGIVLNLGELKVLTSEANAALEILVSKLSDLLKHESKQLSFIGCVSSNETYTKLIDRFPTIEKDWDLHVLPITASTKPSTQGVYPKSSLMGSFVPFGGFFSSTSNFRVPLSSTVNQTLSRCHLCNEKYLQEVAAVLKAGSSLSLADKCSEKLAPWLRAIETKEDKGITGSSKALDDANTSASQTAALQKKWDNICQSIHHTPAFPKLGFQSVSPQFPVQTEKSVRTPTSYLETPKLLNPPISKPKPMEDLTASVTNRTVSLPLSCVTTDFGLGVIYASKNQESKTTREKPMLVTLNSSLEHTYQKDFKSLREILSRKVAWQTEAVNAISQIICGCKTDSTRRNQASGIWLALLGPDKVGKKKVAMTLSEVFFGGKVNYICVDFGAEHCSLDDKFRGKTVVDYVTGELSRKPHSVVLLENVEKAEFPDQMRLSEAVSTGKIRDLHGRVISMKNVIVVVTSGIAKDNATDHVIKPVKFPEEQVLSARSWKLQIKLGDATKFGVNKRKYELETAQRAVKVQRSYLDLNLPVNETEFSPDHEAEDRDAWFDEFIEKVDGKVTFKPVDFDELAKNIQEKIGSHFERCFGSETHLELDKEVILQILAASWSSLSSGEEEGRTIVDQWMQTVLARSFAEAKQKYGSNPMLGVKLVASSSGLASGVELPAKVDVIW

Another data set has as its target T3, GST-SMXL8 (Arabidopsis thaliana, UniProt F4IGZ2 1-910).
T3 sequence: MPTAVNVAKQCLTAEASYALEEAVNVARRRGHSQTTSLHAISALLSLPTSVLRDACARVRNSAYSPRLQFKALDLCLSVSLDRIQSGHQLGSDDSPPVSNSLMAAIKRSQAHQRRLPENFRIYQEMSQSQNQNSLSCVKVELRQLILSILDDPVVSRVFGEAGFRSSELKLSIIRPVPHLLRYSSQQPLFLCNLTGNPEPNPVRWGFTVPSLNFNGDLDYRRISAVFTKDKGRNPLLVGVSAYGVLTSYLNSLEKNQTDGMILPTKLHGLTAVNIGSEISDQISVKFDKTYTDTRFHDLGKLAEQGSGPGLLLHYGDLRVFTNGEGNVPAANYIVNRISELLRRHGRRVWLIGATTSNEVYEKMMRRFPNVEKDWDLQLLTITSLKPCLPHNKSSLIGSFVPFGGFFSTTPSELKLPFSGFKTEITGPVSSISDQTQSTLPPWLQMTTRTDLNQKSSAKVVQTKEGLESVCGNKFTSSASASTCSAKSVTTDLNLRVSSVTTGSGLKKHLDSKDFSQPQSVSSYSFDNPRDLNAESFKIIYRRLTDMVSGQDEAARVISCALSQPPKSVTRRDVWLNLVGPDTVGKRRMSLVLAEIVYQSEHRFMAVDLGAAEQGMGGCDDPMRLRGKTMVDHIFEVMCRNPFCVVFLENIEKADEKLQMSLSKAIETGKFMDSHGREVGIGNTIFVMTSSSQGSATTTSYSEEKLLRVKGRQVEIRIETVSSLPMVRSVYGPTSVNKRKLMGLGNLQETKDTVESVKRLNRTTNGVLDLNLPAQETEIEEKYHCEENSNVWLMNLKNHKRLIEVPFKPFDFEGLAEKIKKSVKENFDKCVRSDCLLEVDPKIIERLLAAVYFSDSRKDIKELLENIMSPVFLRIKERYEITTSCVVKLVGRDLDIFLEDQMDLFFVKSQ

B1: SnRK2.3 promoter p2.3-3-1-2-a (dsDNA)
DNA 1: CTTGGGGCAACCAATTATTGCCTTTTTTCTTCCTCTCTTTCCTTATTCGTT
DNA 2: AACGAATAAGGAAAGAGAGGAAGAAAAAAGGCAATAATTGGTTGCCCCAAG
On to B1, for which the binding result with GST-SMXL7, with GST-SMXL6 and in the data set with GST-SMXL8 was “binds” each time.

B2: SnRK2.6 promoter p2.6-3-1-1-a (dsDNA)
DNA 1: GACATTTGTGGTAACTTGTTTTTCTTTTATTTTCCGTTTTTAAATGCGGAAACCCTT
DNA 2: AAGGGTTTCCGCATTTAAAAACGGAAAATAAAAGAAAAACAAGTTACCACAAATGTC
Turning to B2, the binding result with GST-SMXL6 and with GST-SMXL8 was “binds” in each case.

The values above are taken from paper PMC10526831, “SUPPRESSOR OF MAX2 LIKE 6, 7, and 8 Interact with DDB1 BINDING WD REPEAT DOMAIN HYPERSENSITIVE TO ABA DEFICIENT 1 to Regulate the Drought Tolerance and Target SUCROSE NONFERMENTING 1 RELATED PROTEIN K”.
